In patent publication US20190359693A1:

B1: MD1214 (bispecific antibody)
chain: EVQLVESGGGLVQPGGSLRLSCAVSISIFDIYAMDWYRQAPGKQRDLVATSFRDGSTNYADSVKGRFTISRDNAKNTLYLQMNSLKPEDTAVYLCHVSLYRDPLGVAGGMGVYWGKGALVTVSSAAAGGGGSGGGGSGGGGSEVQLVESGGGLVQAGGSLKLSCAASGRTYAMGWFRQAPGKEREFVAHINALGTRTYYSDSVKGRFTISRDNAKNTEYLEMNNLKPEDTAVYYCTAQGQWRAAPVAVAAEYEFWGQGTQVTVSS
B2: MD1215 (VHH)
chain: EVQLVESGGGLVQAGGSLKLSCAASGRTYAMGWFRQAPGKEREFVAHINALGTRTYYSDSVKGRFTISRDNAKNTEYLEMNNLKPEDTAVYYCTAQGQWRAAPVAVAAEYEFWGQGTQVTVSSAAAGGGGSGGGGSGGGGSGGGGSGGGGGGSGGGGSGGGGSGGGGSGGGGSGGGGSGGGGSEVQLVESGGGLVQAGGSLKLSCAASGRTYAMGWFRQAPGKEREFVAHINALGTRTYYSDSVKGRFTISRDNAKNTEYLEMNNLKPEDTAVYYCTAQGQWRAAPVAVAAEYEFWGQGTQVTVSS
B3: MD2322 (VHH)
chain: EVQLVESGGGLVQPGGSLRLSCAVSISIFDIYAMDWYRQAPGKQRDLVATSFRDGSTNYADSVKGRFTISRDNAKNTLYLQMNSLKPEDTAVYLCHVSLYRDPLGVAGGMGVYWGKGALVTVSSGGGGSGGGGSEVQLVESGGGLVQPGGSLRLSCAVSISIFDIYAMDWYRQAPGKQRDLVATSFRDGSTNYADSVKGRFTISRDNAKNTLYLQMNSLKPEDTAVYLCHVSLYRDPLGVAGGMGVYWGKGALVTVSSGGGGSGGGGSEVQLVESGGGLVQPGGSLRLSCAVSISIFDIYAMDWYRQAPGKQRDLVATSFRDGSTNYADSVKGRFTISRDNAKNTLYLQMNSLKPEDTAVYLCHVSLYRDPLGVAGGMGVYWGKGALVTVSS
B4: MD2303 (bispecific antibody)
chain: EVQLVESGGGLVQPGGSLRLSCAVSISIFDIYAMDWYRQAPGKQRDLVATSFRDGSTNYADSVKGRFTISRDNAKNTLYLQMNSLKPEDTAVYLCHVSLYRDPLGVAGGMGVYWGKGALVTVSSGGGGSGGGGSEVQLVESGGGLVQAGGSLKLSCAASGRTYAMGWFRQAPGKEREFVAHINALGTRTYYSDSVKGRFTISRDNAKNTEYLEMNNLKPEDTAVYYCTAQGQWRAAPVAVAAEYEFWGQGTQVTVSSGGGGSGGGGSEVQLVESGGGLVQPGGSLRLSCAATGFTLENKAIGWFRQTPGSEREGVLCISKSGSWTYYTDSMRGRFTISRDNAENTVYLQMDSLKPEDTAVYYCATTTAGGGLCWDGTTFSRLASSWGQGTQVTVSS
B5: SD3087 (VHH)
VHH: EVQLLESGGGLVQPGGSLRLSCAASGFTLENKAIGWFRQAPGKEREGVLCISKSGSWTYYADSVKGRFTISRDNSKNTVYLQMNSLRPEDTAVYYCATTTAGGGLCWDGTTFSRLASSWGQGTLVTVSS
B6: MD2320 (bispecific antibody)
chain: EVQLVESGGGLVQAGDSLRISCAASGRTLSIYSMGWFRQAPGKEREFVATIGWNSGRTFYPDSLKGRFTISRDNARNTLYLQMNNLRPEDTAVYYCAAAKGPLRLSSQADYWGQGTQVTVSSGGGGSGGGGSEVQLVESGGGLVQPGGSLRLSCAVSISIFDIYAMDWYRQAPGKQRDLVATSFRDGSTNYADSVKGRFTISRDNAKNTLYLQMNSLKPEDTAVYLCHVSLYRDPLGVAGGMGVYWGKGALVTVSSGGGGSGGGGSEVQLVESGGGLVQPGGSLRLSCAATGFTLENKAIGWFRQTPGSEREGVLCISKSGSWTYYTDSMRGRFTISRDNAENTVYLQMDSLKPEDTAVYYCATTTAGGGLCWDGTTFSRLASSWGQGTQVTVSS
B7: MD2317 (bispecific antibody)
chain: EVQLVESGGGLVQPGGSLRLSCAVSISIFDIYAMDWYRQAPGKQRDLVATSFRDGSTNYADSVKGRFTISRDNAKNTLYLQMNSLKPEDTAVYLCHVSLYRDPLGVAGGMGVYWGKGALVTVSSGGGGSGGGGSEVQLVESGGGLVQAGDSLRISCAASGRTLSIYSMGWFRQAPGKEREFVATIGWNSGRTFYPDSLKGRFTISRDNARNTLYLQMNNLRPEDTAVYYCAAAKGPLRLSSQADYWGQGTQVTVSSGGGGSGGGGSEVQLVESGGGLVQPGGSLRLSCAATGFTLENKAIGWFRQTPGSEREGVLCISKSGSWTYYTDSMRGRFTISRDNAENTVYLQMDSLKPEDTAVYYCATTTAGGGLCWDGTTFSRLASSWGQGTQVTVSS
B8: MD2306 (bispecific antibody)
chain: EVQLVESGGGLVQPGGSLRLSCAVSISIFDIYAMDWYRQAPGKQRDLVATSFRDGSTNYADSVKGRFTISRDNAKNTLYLQMNSLKPEDTAVYLCHVSLYRDPLGVAGGMGVYWGKGALVTVSSGGGGSGGGGSEVQLVESGGGLVQPGGSLRLSCAVSISIFDIYAMDWYRQAPGKQRDLVATSFRDGSTNYADSVKGRFTISRDNAKNTLYLQMNSLKPEDTAVYLCHVSLYRDPLGVAGGMGVYWGKGALVTVSSGGGGSGGGGSEVQLVESGGGLVQPGGSLRLSCAATGFTLENKAIGWFRQTPGSEREGVLCISKSGSWTYYTDSMRGRFTISRDNAENTVYLQMDSLKPEDTAVYYCATTTAGGGLCWDGTTFSRLASSWGQGTQVTVSS
B9: MD2406 (VHH)
chain: EVQLVESGGGLVQPGGSLRLSCAVSISIFDIYAMDWYRQAPGKQRDLVATSFRDGSTNYADSVKGRFTISRDNAKNTLYLQMNSLKPEDTAVYLCHVSLYRDPLGVAGGMGVYWGKGALVTVSSGGGGSGGGGSEVQLVESGGGLVQPGGSLRLSCAVSISIFDIYAMDWYRQAPGKQRDLVATSFRDGSTNYADSVKGRFTISRDNAKNTLYLQMNSLKPEDTAVYLCHVSLYRDPLGVAGGMGVYWGKGALVTVSSGGGGSGGGGSEVQLVESGGGLVQPGGSLRLSCAVSISIFDIYAMDWYRQAPGKQRDLVATSFRDGSTNYADSVKGRFTISRDNAKNTLYLQMNSLKPEDTAVYLCHVSLYRDPLGVAGGMGVYWGKGALVTVSSGGGGSGGGGSEVQLVESGGGLVQPGGSLRLSCAVSISIFDIYAMDWYRQAPGKQRDLVATSFRDGSTNYADSVKGRFTISRDNAKNTLYLQMNSLKPEDTAVYLCHVSLYRDPLGVAGGMGVYWGKGALVTVSS
B10: SD1034 (VHH)
VHH: EVQLVESGGGLVQAGGSLRLSCAASGTIFGIRVNTMGWYRQAPGEQRELVATITRSGGTNYADSVKDRFTISGDFAKDTVYLQMMHLKPEDTAVYYCNGRWALTDYWGQGTQVTVSS
B11: MD1213 (VHH)
chain: EVQLVESGGGLVQAGGSLKLSCAASGRTYAMGWFRQAPGKEREFVAHINALGTRTYYSDSVKGRFTISRDNAKNTEYLEMNNLKPEDTAVYYCTAQGQWRAAPVAVAAEYEFWGQGTQVTVSSAAAGGGGSGGGGSGGGGSEVQLVESGGGLVQAGGSLKLSCAASGRTYAMGWFRQAPGKEREFVAHINALGTRTYYSDSVKGRFTISRDNAKNTEYLEMNNLKPEDTAVYYCTAQGQWRAAPVAVAAEYEFWGQGTQVTVSS
B12: MD1216 (bispecific antibody)
chain: EVQLVESGGGLVQPGGSLRLSCAVSISIFDIYAMDWYRQAPGKQRDLVATSFRDGSTNYADSVKGRFTISRDNAKNTLYLQMNSLKPEDTAVYLCHVSLYRDPLGVAGGMGVYWGKGALVTVSSAAAGGGGSGGGGSGGGGSGGGGSGGGGGGSGGGGSGGGGSGGGGSGGGGSGGGGSGGGGSEVQLVESGGGLVQAGGSLKLSCAASGRTYAMGWFRQAPGKEREFVAHINALGTRTYYSDSVKGRFTISRDNAKNTEYLEMNNLKPEDTAVYYCTAQGQWRAAPVAVAAEYEFWGQGTQVTVSS

Key:
Test in all cases: cell-based or functional assay
[1] = molecular target: hemagglutinin (HA) of influenza virus H1N1 A/California/07/09 (influenza A virus)
[2] = molecular target: hemagglutinin (HA) of influenza virus H3N2 A/Wisconsin/67/05 (influenza A virus)
[3] = molecular target: hemagglutinin (HA) of influenza virus H1N1 A/Puerto Rico/8/34-MA (influenza A virus)
[4] = molecular target: hemagglutinin (HA) of influenza virus H5N1 A/Vietnam/1194/04 (influenza A virus)
[5] = molecular target: hemagglutinin (HA) of influenza virus H7N3 A/NIBRG/60 (A/mallard/Netherlands/12/00) (influenza A virus)
[6] = molecular target: hemagglutinin (HA) of influenza virus H7N7 A/PR8 H7N7-NY (influenza A virus)
[7] = molecular target: hemagglutinin (HA) of influenza virus H1N1 A/New Caledonia/20/99 (influenza A virus)
[8] = molecular target: hemagglutinin (HA) of influenza virus B/Florida/04/06 (Yamagata) (influenza B virus)
[9] = molecular target: hemagglutinin (HA) of influenza virus H3N2 A/Brisbane/10/07 (influenza A virus)
[10] = molecular target: hemagglutinin (HA) of influenza B/Massachusetts/02/12 (Yamagata) (influenza B virus)
[11] = molecular target: hemagglutinin (HA) of influenza B/Harbin/7/94 (Yamagata) (influenza B virus)
[12] = molecular target: hemagglutinin (HA) of influenza B/Florida/04/06 (Yamagata) (influenza B virus)
[13] = molecular target: hemagglutinin (HA) of influenza B/Lee/40 (Old) (influenza B virus) (UniProt P03460)
[14] = molecular target: hemagglutinin (HA) of influenza B/Malaysia/2506/04 (Victoria) (influenza B virus)
[15] = molecular target: HA of H7N3 A/NIBRG/60 (A/mallard/NL/12/00) (influenza A virus)
[16] = molecular target: HA of H1N1 A/New Caledonia/20/1999 (influenza A virus)
[17] = molecular target: HA of H1N1 A/Puerto Rico/8/34-MA (influenza A virus)
[18] = molecular target: HA of H3N2 A/Brisbane/10/2007 (influenza A virus)
[19] = molecular target: HA of H5N1 A/Vietnam/1194/04 (influenza A virus)

Binder	neutralization titer [1]	neutralization titer [2]	neutralization titer [3]	neutralization titer [4]	average neutralization titer [2]	average neutralization titer [5]	average neutralization titer [6]	other results
B1	1.4 nM	12.5 nM	7.5 nM	0.9 nM				
B2	4.1 nM	34.1 nM	39.6 nM	918 nM				
B3					7.3 nM	6.1 nM	14.7 nM	
B4					15 nM	10.2 nM	18.2 nM	average neutralization titer [3]: 9.1 nM; average neutralization titer [7]: 7.2 nM; average neutralization titer [8]: 412 nM; average neutralization titer [9]: 12.8 nM; average neutralization titer [4]: 9.1 nM
B5								VNA IC50 [10]: 104 nM; VNA IC50 [11]: 201 nM; VNA IC50 [12]: 160 nM; VNA IC50 [13]: 91 nM; VNA IC50 [14]: 81 nM
B6					> 1000 nM	15.3 nM	15.3 nM	
B7					12.8 nM	12.8 nM	12.8 nM	
B8					5.4 nM	15.4 nM		average neutralization titer [7]: 6.1 nM; average neutralization titer [9]: 10.7 nM; average neutralization titer [4]: 4.7 nM
B9					4.6 nM	4.6 nM	11 nM	
B10								VNA titer [15]: > 1000 nM; VNA titer [16]: 161 nM; VNA titer [17]: 756 nM; VNA titer [18]: > 1000 nM; VNA titer [19]: 722 nM
B11	2.4 nM	18.6 nM	27.8 nM	< 1000 nM				
B12	1.4 nM	12.1 nM	9.7 nM	3.4 nM				
